Consider three substances from article PMC5482063.

For test [1], the target named is farnesylated Cryptochrome interacting basic helix-loop-helix 1 (CIB1-CAAX) (UniProt Q8GY61). Briefly: light-induced membrane recruitment assay (TIRF microscopy); living COS-7 or MC3T3-E1 cells co-expressing the Cry2 construct and CIB-CAAX; illumination limited to a 5 μm-diameter circle (440 nm); 37 °C.
The target is the same in test [2]. The test can be described thus: light-induced membrane recruitment assay (TIRF microscopy); living COS-7 cells co-expressing the Cry2 construct and CIB1-CAAX at the plasma membrane; whole-cell blue light (440 nm, 50 ms pulses at 10 s intervals); fluorescence after ten pulses normalised to that before illumination; 37 °C.
In test [3] the target is mCherry-optoPlexin (chimera of Cry2 at the amino terminus, mCherry, and the intracellular domain of Plexin-B1 at the C terminus) (not stated | mouse) (UniProt Q96524). The test can be described thus: membrane co-recruitment assay (TIRF microscopy); living COS-7 cells co-expressing mVenus-RhoGEF, the mCherry-tagged Cry2 construct and CIB-CAAX; whole-cell blue light; increase of the RhoGEF's fluorescence relative to that of optoPlexin (relative co-recruitment); only cells with at least 30% increase in optoPlexin signal; also with Erlotinib.

UniProt Q8GY61, sequence (Q8GY61 whole entry): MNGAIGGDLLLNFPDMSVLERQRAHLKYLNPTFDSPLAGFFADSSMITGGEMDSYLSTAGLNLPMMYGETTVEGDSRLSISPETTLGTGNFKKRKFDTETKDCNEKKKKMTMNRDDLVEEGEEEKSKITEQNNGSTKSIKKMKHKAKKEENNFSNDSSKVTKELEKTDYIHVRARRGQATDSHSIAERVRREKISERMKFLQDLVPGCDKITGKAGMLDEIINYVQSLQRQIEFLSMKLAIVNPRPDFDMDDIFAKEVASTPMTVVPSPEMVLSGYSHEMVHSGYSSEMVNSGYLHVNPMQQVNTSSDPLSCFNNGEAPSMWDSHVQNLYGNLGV

On to “mCherry-optoPlexin (chimera of Cry2 at the amino terminus, mCherry, and the intracellular domain of Plexin-B1 at the C terminus) (from UniProt Q96524 1-612)”, for which the figures for the fold increase of TIRF fluorescence intensity (membrane recruitment) in test [1] and in test [2] were 4 fold and 2 fold, respectively.

Take “mVenus-Leukemia-associated RhoGEF (mVenus-LARG) (from UniProt Q9NZN5 1-1544) (natural protein)”: the relative co-recruitment (increase in fluorescence relative to that of optoPlexin) in test [3] came to 60%.

“mVenus-PDZ-RhoGEF (mVenus-PRG) (from UniProt O15085 1-1522) (natural protein)” came in with a relative co-recruitment (increase in fluorescence relative to that of optoPlexin) in test [3] of 26%.
